Earlier results in patent US12714740B2, “Compositions comprising a tweak ligand and methods of using same” (Children's Hospital Medical Center, priority 2019, dated 2026).

Target: T1, Fn14 (Homo sapiens, UniProt Q9NP84)
T1 sequence (Q9NP84 28-129): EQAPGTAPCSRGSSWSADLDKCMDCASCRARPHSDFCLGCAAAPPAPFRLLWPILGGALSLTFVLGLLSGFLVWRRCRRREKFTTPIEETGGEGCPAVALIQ
Conditions: natural ligand binding to Fn14; high affinity; read-out: interaction affinity constant (Kd)

B1: TWEAK: natural ligand for Fn14; 14 kDa protein, TNF superfamily member 12 (protein, UniProt O43508 94-249, looked up)
Tumor necrosis factor ligand …: SAPKGRKTRARRAIAAHYEVHPRPGQDGAQAGVDGTVSGWEEARINSSSPLRYNRQIGEFIVTRAGLYYLYCQVHFDEGKAVYLKLDLLVDGVLALRCLEEFSATAASSLGPQLRLCQVSGLLALRPGSSLRIRTLPWAHLKAAPFLTYFGLFQVH
Kd: 0.8 to 2.4 nM
